Laboratory results from article PMC9795577.
Each block holds one substance with its values, some of them ahead of it.

Experiments:
[1] = target: FLAG-tagged yeast PEX13 with a single cysteine at residue 104 in the YG domain (S. cerevisiae) (UniProt P80667); test: cross-linking; disulfide cross-linking of introduced cysteines in intact yeast membranes: 0, 50 or 200 μM Aldrithiol-4, 30 min at 30 °C, 20 mM HEPES-NaOH pH 7.2, 50 mM NaCl, 250 mM sucrose, 1 mM EDTA; quenched with NEM, solubilised in 0.5 % DDM, anti-FLAG IP, non-reducing or reducing SDS-PAGE, blot; also with DDM added before the oxidant, and in strains lacking PEX2, PEX5, PEX14 or PEX17
[2] = target: FLAG-tagged yeast PEX13 with a single cysteine at residue 131 in the YG domain (S. cerevisiae) (UniProt P80667); test: as above
[3] = target: FLAG-tagged yeast PEX13 with two cysteines in the YG domain (positions 104 and 131) (S. cerevisiae) (UniProt P80667); test: as above
[4] = target: FLAG-tagged yeast PEX13 with two cysteines (104 and 131) and all tyrosines of the YG domain converted into serines (UniProt P80667); test: disulfide crosslinking in intact membranes, FLAG IP and immunoblot quantification; conditions: nonreducing SDS-PAGE, read off a plot
Chain of FLAG-tagged yeast PEX13 with two cysteines (104 and 131) and all tyrosines of the YG domain converted into serines (P80667 other isoform, or with tags, fused parts or gaps): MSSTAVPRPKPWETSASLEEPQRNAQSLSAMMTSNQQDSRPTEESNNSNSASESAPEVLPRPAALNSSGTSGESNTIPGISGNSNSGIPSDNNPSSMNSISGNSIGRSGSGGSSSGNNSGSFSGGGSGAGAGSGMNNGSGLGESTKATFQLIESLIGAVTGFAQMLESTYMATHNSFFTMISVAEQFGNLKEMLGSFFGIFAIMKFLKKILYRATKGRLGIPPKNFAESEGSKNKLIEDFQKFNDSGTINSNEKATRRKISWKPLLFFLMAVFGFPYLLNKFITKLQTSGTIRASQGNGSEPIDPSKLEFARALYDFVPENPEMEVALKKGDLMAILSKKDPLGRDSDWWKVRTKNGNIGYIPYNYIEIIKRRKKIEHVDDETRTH

Chain of FLAG-tagged yeast PEX13 with a single cysteine at residue 131 in the YG domain (P80667 whole entry, the tested form may be a part): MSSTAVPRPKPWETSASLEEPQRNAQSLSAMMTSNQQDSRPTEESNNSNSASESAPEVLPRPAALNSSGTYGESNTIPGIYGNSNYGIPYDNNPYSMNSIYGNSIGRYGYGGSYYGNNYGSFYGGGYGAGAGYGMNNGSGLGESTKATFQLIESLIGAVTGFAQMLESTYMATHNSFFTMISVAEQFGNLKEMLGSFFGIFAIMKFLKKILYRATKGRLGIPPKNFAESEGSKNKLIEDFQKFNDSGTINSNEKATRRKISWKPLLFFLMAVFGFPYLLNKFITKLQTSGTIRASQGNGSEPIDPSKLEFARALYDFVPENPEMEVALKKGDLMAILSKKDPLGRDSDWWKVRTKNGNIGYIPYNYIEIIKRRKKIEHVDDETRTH
Chain of FLAG-tagged yeast PEX13 with two cysteines in the YG domain (positions 104 and 131) (P80667 whole entry, the tested form may be a part): as above
Chain of FLAG-tagged yeast PEX13 with a single cysteine at residue 104 in the YG domain (P80667 whole entry, the tested form may be a part): as above

percent disulfide-linked dimers [1]: > 70%
Substance: FLAG-tagged yeast PEX13 with a single cysteine at residue 104 in the YG domain (from UniProt P80667 1-386) (natural protein)

percent disulfide-linked dimers [2]: > 70%
Substance: FLAG-tagged yeast PEX13 with a single cysteine at residue 131 in the YG domain (from UniProt P80667 1-386) (natural protein)

stoichiometry N [3]: > 8
Substance: FLAG-tagged yeast PEX13 with two cysteines in the YG domain (positions 104 and 131) (from UniProt P80667 1-386) (natural protein)

other: fraction crosslinked ([4]; lane 4 (parent lane 1), lowest point of oxidant series, 0 µM Aldrithiol-4, parent: est. 0.10): 0.06
other: fraction crosslinked ([4]; lane 5 (parent lane 2), middle point of oxidant series, 50 µM Aldrithiol-4, parent: est. 0.67): 0.1
other: fraction crosslinked ([4]; lane 6 (parent lane 3), highest point of oxidant series, 200 µM Aldrithiol-4, parent: est. 0.70): 0.18
Substance: FLAG-tagged yeast PEX13 with two cysteines in the YG domain (positions 104 and 131) (from UniProt P80667) Y71S; Y81S; Y86S; Y90S; Y95S; Y101S; Y108S; Y110S; Y114S; Y115S; Y119S; Y123S; Y127S; Y133S
